Assay results published in the RNAGym collection of RNA variant scans (doi:10.1073/pnas.2313332121).

B1: TPR t1 (parent)
chain: GACCAAUCUGCCCUCAGAGCUCGAGAACAUCUUCGGAUGCAGAGGAGGCAGGCUUCGGUGGCGCGAUAGCGCCAACGUCCUCAACCUCCAAUGCAUCCCACCACAUGAUGAUGCCUGAAGAGCCUUGGUUUUUUG

Variants of: B1
Experiment: polymerase ribozyme fitness, log enrichment relative to wild type (log ratio); higher = more active; in vitro selection for triplet polymerase activity
Summary of the method: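 Mutant libraries were PCR-built and transcribed for each subunit of a heterodimeric triplet polymerase ribozyme and selected for one round in triplicate at −7 °C, frozen, before gel excision of extended constructs and streptavidin-bead capture. Input and output libraries were Illumina-sequenced, keeping genotypes with ≥10 input reads and ≥1 read per output. Fitness is a logarithmic ratio of genotype to wild-type enrichment, in base 2, using inverse-variance-weighted replicate averages.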

Variant | polymerase ribozyme fitness (log ratio)
A37U A90C U96A | -0.653
C3A C28U G63C | -3.87
C64A U133A | -6.16
A6U G120U | -0.0286
G35C U81A U109A C114A C123G | -5.16
C13G G45A G48A G61C | -3.73
G60C A90C C97U G117C | -6.07
A46U U106A | -1.09
C3G A18C C22A A26G G60U A95U G120A | -4.84
U9G C34A | -1.59
G39C G61C A83G | -3.89
G48C G61C | -2.06
G48U G69U | -0.529
G35U G63U C101A C115U | -5.79
U96A G128C | -3.28
G36C C56U | -0.42
U9C G60U C99A | -6.14
C56G C64A U106C C114U | -6.98
G44C C56U C88U C101U G110U | -3.38
G69A C86G A121U | -1.34
C31U C94A C114U | -5.92
C72G C124A | 1.03
C94G G113A | -3.13
A18U A74U | -3.3

Variant | polymerase ribozyme fitness (log ratio)
C4G U96A G127U | -1.19
C12U C20U C40U C49G | -1.67
C4G U9C C70U C89U U96A | -3.09
A46C G71C | -1.14
C3G A24G | -3.73
U21G A41U G60C C80U U92C C97A A121U | -8.22
G42U U106A | -1.56
A6G C13U C102U G122A | -2.62
G61U U81G U129A | -4.47
C13A G36C G69C | -2.94
U9A U14A C64U | 0.0854
C20A | -2.6
C12U C76U | -0.504
U14C C62U | -1.6
G61U C97A | -3.26
A5G C89U | -0.12
C3U C13U U59A | -0.207
C49G U112C G113A | -2.11
A37U C99U | -2.37
C11A G44U C56U | -2.23
C4U G44U G61A C80G C89G C114U U131G | -7.14
C11A G42A C86U U96A | -4.6
C34U C85A A111U | -5.33
C28G C53U G93A | -5.35

Variant | polymerase ribozyme fitness (log ratio)
U9A C13G G61U | 0.255
G51A C56U A84U C99U A121U | -5.26
U7A C70U C115A | 0.524
C73U A121U U133A | 2.19
G42C C101U | -1.45
A5U G51U | -3.03
C12A A84U U130A | -1.77
A43C G71U C80U G110A G113U | -7.29
G44U C94G | -3.91
A84G C86A U96C G113A | -2.94
A29G A37G C88U A111C | -0.788
C70A G117U A121C U130C | -4.1
U14G A111C G127A | -3.8
G61U A83G U112C | 1.59
G69U C104G U133G | -5.17
C49U A66C C86G C88U U92A C114U | -5.32
A5G G45C G69A | -2.95
C49U G128C | -2.44
C72U G117A U133A | -1.1
A41U C86G A95U | -3.96
A37U G51U G60C C85U U96A G113A | -4.21
U7G G51C | -2.99
G19A U109A | -5.74
C22A C73A G120A | -4.58

Variant | polymerase ribozyme fitness (log ratio)
C53G G107U C123G | -2.73
U7A C73G U116G | -2.7
U9C C56A | -0.0544
G19A C73U | -2.61
G47C A108G U112A | -5.05
A6G C62A | -0.491
A100U G113C | -2.85
C49A G63A | -0.725
C62U C104G | -7
G39C G48U C73A A100U | -2.09
G63U C114U | -3.25
A37C G63U G122U | -2.81
G44U C70A U129A U131A | -3.71
A2G C22A | -4.99
C34U C72A | -3.94
G113U C114A | -4.29
U59C C123G | 1.95
A68G A84G | -3.98
C13A G44U C72U U78C G128A | -6.14
C3U C49A G63A C80U G93A | -5.66
A18C U78A U112G G122U | -4.43
C22A C31G G71U U92C G93A C114U | -6.77
G47A G61A A84C | -1.29
C12A U130A | -2.22

Variant | polymerase ribozyme fitness (log ratio)
U116C G127A U130G | -4.14
G42C C49A G69U A90U U109G G128U | -6.14
A29G C73A C76A | -3.61
G48A C104U | -1.25
C70A U106A | -1.51
C49U C53A A111C | -0.429
U7A G48A A50G G77A C101U U109A | -5.13
U21A A27C U32G G71A U112C | -5.9
C8A A18C C22G | -4.25
C11G C62U | -0.108
C76G A90C | -0.998
A6G C8A U55A | 0.109
U7C C11A G45C G58A | -0.0271
C79G C124G | -0.0918
G58U C114U | -2.25
C40A G45U A90G | -1.17
U133C | 0.332
C115U U133A | -0.794
G10A C72U G113A | -1.32
G10U U55C C123A | 0.286
C49U C124U | 1.03
C20A U32A C70U G93C | -6.8
C20A A84U A90G C98G U109A A121U | -3.83
G120A G122U | 0.476

Variant | polymerase ribozyme fitness (log ratio)
C115U U126G | -3.36
C15A G120C U129A | -1.24
U7C G107A U109A | -4.11
G42U G48A C104U | -0.902
G35A C64U U87G | -4.86
C76A U78A U96A | -1.43
G61A A84U C114U | -2.12
G51C G63A U78C A111C | -6.17
U67C C85U | -4.67
C49A G128C | -3.42
G47C G117U | -4.33
A29U U109G G122A | -1.47
C12U G48U A111C | -0.108
C34U U59A U106A U109A G120A | -5.08
C56U C115U | -0.661
G61A U78G A84U C86A | -1.71
G52U C72G C79A G110A C123A | -3.69
C4A G52C | -2.41
C70A C94U A100C | -2.44
A46U C89U G135U | -4.54
C20A U106A C124A | -1.85
U7G C8U C70G | -1.52
C20A G63C | -3.31
G48U C56G C72U C86G | -2.89

Variant | polymerase ribozyme fitness (log ratio)
C64U C88U G122A | -0.852
U54C C86G U112G G120C | -1.16
G61C G107C C114A A119U | -6.57
G69U G110U | 0.852
G60U C114U | -2.1
U87G A119G | 1.67
A43U G44A G61C A84C A90U C102U C123U | -4.59
G60C C82A | -0.574
C72G A100U | -0.592
A18U G42C A50U | -3.92
C13G A46U | -2.39
C11U C13U A18G C56U U109A | -4.43
C20G U133G | -3.81
C13U G45C C70U C124A | -0.034
U9G C104U | 0.944
C12U G69C U81C G110U | -3.57
C124A U125A | 1.57
A5C A24U | -5.29
C49A C62G C76U | -5.79
G17U A37C C53A A83U A90U A91C | -3.91
C97U U125G | -1.25
G17U G71A G135U | -4.32
C49U U81A C89A | -4.05
